From paper PMC9917816, “STS1 and STS2 Phosphatase Inhibitor Baicalein Enhances the Expansion of Hematopoietic and Progenitor Stem Cells and Alleviates 5-Fluorouracil-Induced Myelosuppression” (International Journal of Molecular Sciences, 2023) come the findings set out here.

What is called Km is the substrate concentration at which the rate is half of its maximum. By kcat is commonly meant the maximal rate divided by the concentration of active sites. Usually kcat/Km stands for the turnover number divided by the Michaelis constant.

Substrate in this series: O=[N+]([O-])c1ccc(OP(=O)(O)O)cc1
Kind of series: purified protein. The format is biochemical, Homo sapiens. The note with it: 25 mM HEPES, 50 mM NaCl, 5 mM DTT, 2.5 mM EDTA, pH 7.2, 25 °C.

The mark [1] stands for this setting: 20 min, text (b9) says STS2 has lower Km than STS1, against the table.

B1: STS2-HP (STS2 histidine phosphatase domain) (Homo sapiens) (protein)
chain: SLQALQATVARKSVLVVRHGERVDQIFGKAWLQQCSTPDGKYYRPDLNFPCSLPRRSRGIKDFENDPPLSSCGIFQSRIAGDALLDSGIRISSVFASPALRCVQTAKLILEELKLEKKIKIRVEPGIFEWTKWEAGKTTPTLMSLEELKEANFNIDTDYRPAFPLSALMPAESYQEYMDRCTASMVQIVNTCPQDTGVILIVSHGSTLDSCTRPLLGLPPRECGDFAQLVRKIPSLGMCFCEENKEEGKWELVNPPVKTLTHGANAAFNWRNWISGN
As for B1, under setting [1], the Km turned out to be 5.39 ± 0.52 mM, the kcat came out at 0.27 ± 0.005 s⁻¹ and the kcat/Km was determined as 50.5 ± 4.51 M⁻¹ s⁻¹.

B2: STS1-HP (STS1 histidine phosphatase domain) (Homo sapiens) (protein)
chain: GPQKRCLFVCRHGERMDVVFGKYWLSQCFDAKGRYIRTNLNMPHSLPQRSGGFRDYEKDAPITVFGCMQARLVGEALLESNTIIDHVYCSPSLRCVQTAHNILKGLQQENHLKIRVEPGLFEWTKWVAGSTLPAWIPPSELAAANLSVDTTYRPHIPISKLVVSESYDTYISRSFQVTKEIISECKSKGNNILIVAHASSLEACTCQLQGLSPQNSKDFVQMVRKIPYLGFCSCEELGETGIWQLTDPPILPLTHGPTGGFNWRETLLQE
Regarding B2, where the note is “10 min”, the Km is reported as 3.52 ± 0.44 mM, the kcat is 67.7 ± 1.31 s⁻¹ and the kcat/Km stood at 19500 ± 2100 M⁻¹ s⁻¹.
